Measurements: the nanobody polyreactivity screen of Harvey et al. (2022)

Experiment: yeast display, Sf9 membrane polyspecificity reagent, FACS + sequencing; frameworks hold sequencing errors
How it was run: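 Synthetic nanobody libraries on Saccharomyces cerevisiae BJ5465 were galactose-induced for 36–48 hours, stained 1 hour at 4 °C with 10% biotinylated, detergent-solubilized Sf9 membrane reagent and enriched on streptavidin microbeads. FACS then separated cells into low and high (top ~1%) gates by anti-HA (expression) and streptavidin (reagent binding) fluorescence. Genes were colony-PCR amplified, MiSeq 2 × 250 sequenced and CDR-length filtered. A clone's polyreactivity label is that of its gate of origin.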

Sequence	polyreactivity (PSR sort gate)
QVQLVESGGGLVQAGGSLRLSCAASGSNFRVNAMGWYRQAPGKERELVAASSSGGSTHYADSVKGRFTISRDNAKNTFYLQMISLKPEDTAVYYCAVRYALGPYLWYYWGQGTQVTVSS	high polyreactivity
QVQLVESGGGLVQAGGSLRLSCAASGSNFRVYAMGWYSQAAGKERELVAAISRSGSITYYADSVKGRFTISRDNAKNTVYLQMNSLKPEDTAVYYCAARTYCRFTASTYYYWGQGTQVTVSS	high polyreactivity
QVQLVESGGGLVQAGGSLRLSCAASGSNFSAYMGWYRQAPGKERELVADISSTGTTYYADSVKGRFTISRDNAKNTVYLQMNSLKPEDTAVYYCNADYFLQQEVTFDYWGQGSQVTVSS	high polyreactivity
QVQLVESGGGLVQAGGSLRLSCAASGSNFSGNAMGWYRQAPGKERELVAAISRRGGRTYYADSVKGRFTISRDNAKNTVYLQMNSLIPEDTAVYYCNADSVRYDYSAYDYEYWGQGTQVNVSS	high polyreactivity
QVQLVESGGGLVQAGGSLRLSCAASGSNFSRYAMGWYTQAPGKERELVAAISKSGGSTYYADSVKGRFTISRDNAKNTVYLEMNSLIPEDTAVYYCNARDSPVQRRAEPYGYWGQGTQVTVSS	high polyreactivity
QVQLVESGGGLVQAGGSLRLSCAASGSNFSYYTMGWYRRATGKERELVAGITWSGGGTSYADSVKGRFTISRDNAKNTVYVQMNSLKPEDTAVYYCAAVDIGRYYRLDYWGQGTQVTVSS	low polyreactivity
QVQLVESGGGLVQAGGSLRLSCAASGSNFTYYAMGWYRQAPGKEREFVAAINRSGGSTYYADSVKGRFTISRDNAKNTVYLQMNSLKPEDTAVYYCAARRGSGALRYNYWGQGTQVTVSS	high polyreactivity
QVQLVESGGGLVQAGGSLRLSCAASGSNFTYYAMGWYRQAPGKERELVAAISYSGGTTYYADSVKGRFTISRDNAKNTVYLQMNSLKPEDTAVYYCNVDADYESQWLSVGYDYWGQGTQVTVSS	low polyreactivity
QVQLVESGGGLVQAGGSLRLSCAASGSNFVGYAMGWYRQAPGKERELVAAISWSGDSTYYADSVKGRFTISRDNAKITVYLQMNSLKPEDTAVYYCAVDYAEIGPRREVEYDYWGHGTQVTVSS	low polyreactivity
QVQLVESGGGLVQAGGSLRLSCAASGSNFVTYAMGWSRQAPGKERELVAAISSSGTSTYYADSVKGRFTISRDNAKNTVYLQMNSLKPEDTAVYYCAAYLRGYDYGYWGQGTQVTVSS	high polyreactivity
QVQLVESGGGLVQAGGSLRLSCAASGSNFVTYAMGWYRQAPGKERELVAAISYSGGSTYADSVKGRFTISRDNAKNTVYLQMNILKPEDTAVYYCNTDTSVDVRFDYWGQGTQVTVSS	low polyreactivity
QVQLVESGGGLVQAGGSLRLSCAASGSNFVVYAMGWYRQAPGKERELVAAITGSGGRTYYADSVKGRFTISRDNAKNTVYLQMNSLKPEDTAVYYCATDSRGGIFDYWGQGTQVTVSS	low polyreactivity
QVQLVESGGGLVQAGGSLRLSCAASGSNFYHYAMGWYRQAPGKERELVAAITRSGGSTYYADSVKGRFTISRDNAKNTVYLQLNSLKPEDTAVYYCAKDPDSYNFLTSNWYDYWGQGTQVTVSS	low polyreactivity
QVQLVESGGGLVQAGGSLRLSCAASGSNFYSYVMGWYRQAPGKERELVAAISRNGQSTYYADSVKGRFTISRDNAKNTVYLQMNSLKPEDTAVYYCAARSRDKYDYWGQGTQVTVSS	high polyreactivity
QVQLVESGGGLVQAGGSLRLSCAASGSNISDNEMGWYRPAPGKESELVAAINWGGTNTYYADSVKGRYTISRDNAKNTVYLQINRLKPEDTAVYYCNADIPRRPIRHYLYDYWGQGTQVTVSS	low polyreactivity
QVQLVESGGGLVQAGGSLRLSCAASGSNLGNNDMGWYRQAPGKERQLVAAISRSDVSTFYADSVKGRFTISRDNAKNTVYLQMNSLKPEDTAVSSCAARTGRGDRTRRYYYWGQGTQVTVSS	high polyreactivity
QVQLVESGGGLVQAGGSLRLSCAASGSNVAVYVMGWYRQAPGKERELVAAISISAARTYYADSVKGRFTISRDNAKNTVYLQMNSLKPEDTAVYYGAARLVFRNDSWGQGTQVTVSS	high polyreactivity
QVQLVESGGGLVQAGGSLRLSCAASGSPFRHYALGWYRQAPGKERELVAVISWGGTSTYYADSGKGRFTISRDNAKNTVYLQMNSLKPEDSAVYYCNADSNWYYQWNYYGLYDYWGQGTQVTVSS	low polyreactivity
QVQLVESGGGLVQAGGSLRLSCAASGSRNAMGWYRQEPGKERQFVAAITWNGGSTYYADSVKGRFTITRDNAKNTVYLQMNSLKPEDTAVYYCAADVVFPFSVGYDYWGQGTQVTVSS	low polyreactivity
QVQLVESGGGLVQAGGSLRLSCAASGSSFEGYVLGWYRQAPGKERELVATISFSGGSTYYADSVMGRFTISRDNAKNTVYLQMNSLKPVETAVYFSGASVRYKFYSVVSVRSEYWGQGTQVTVST	low polyreactivity

Sequence	polyreactivity (PSR sort gate)
QVQLVESGGGLVQAGGSLRLSCAASGSSFGGYARGWYRQAPGKERELVAAISNGDRTNYADSVKGRFTISRDNAKNTVYLQLNSQKPEYTAVYDCATQPLTWSSYRWDWRAQFDHWGQGTQVTVSS	low polyreactivity
QVQLVESGGGLVQAGGSLRLSCAASGSSFIINAMGWYRKAPGKERELVAAITSGGSTSYADSVKGRFTISRDNAKYTVYLQMNSLNPEDTAVYYCATDHDIGYNFNRYDYWGLGTQVTVSS	low polyreactivity
QVQLVESGGGLVQAGGSLRLSCAASGSSFISNAKGWYRQAPGKERELVAAINWTTGRTRYADSVQGRFTISRDNAKNSVYLQMNSLKAEDTAVYYCAKYSRKWYGAYYFWGQGTQVNVSS	high polyreactivity
QVQLVESGGGLVQAGGSLRLSCAASGSSFNRYAMGWYRQAPGKERELVAGISYRGGTYYADSVKGRFTISRDNAKNTVYLQMNSLKPEDTAVYYCNVVRRGTTSYDDYDYWGQGTQVTVSS	high polyreactivity
QVQLVESGGGLVQAGGSLRLSCAASGSSFRFYAMGWYRQAPGKERELVATIRYSTGTTYYADSVKGRFTISRDNAKNTVYLQMNSLKPEDTAVYYCAAGYFIYSWRIRFDYWGQGTQVTVSS	high polyreactivity
QVQLVESGGGLVQAGGSLRLSCAASGSSFRYTMGWYRQAHGKQRELVATITYSDGSTYYADSVKGRFTISRDNAKNTVYFQMNSLKPEDTAVYYCARTTPTGRQYRRYDYWGQGSQVTVSS	low polyreactivity
QVQLVESGGGLVQAGGSLRLSCAASGSSFSHYAMGWYRQAPGKVRELVAGISVRGGSTYYADSVKGRFTISRDNAKNTVDLQMNSLKPEDTAVYYCAIGYAKYYRTYYYWGQGTQVTVSS	high polyreactivity
QVQLVESGGGLVQAGGSLRLSCAASGSSFSPYAMGWYRQAPGKERELVAAINSGSSTNYADSVKGRFTISRDNAKNTVYLQMNSLQPEDTAVYYCAADGQLPPRGILASWEFDYWGQGTQVTVSS	low polyreactivity
QVQLVESGGGLVQAGGSLRLSCAASGSSFVYNVMGWYRPAPGKERELVAAIRWRGGSTYADSVKGRFTISRDNAKNTVYLQMNSLKPEDTAVYYCAAGIPRYWYAGHYDYWGQGTQVTVSS	low polyreactivity
QVQLVESGGGLVQAGGSLRLSCAASGSSFYYYAMGWYRQAPGKERELVAAITSGDTTNYADSVKGRFTISRDNAKNTVYLQMNSLIPEDTAVYYCAVDLNTTAFYPEAATYLDEYWGQGTQVTVSS	low polyreactivity
QVQLVESGGGLVQAGGSLRLSCAASGSSLDSYTMGWSRQAPGKERELVAAITSDGGSTYYADSVKGRFTISRDNAKNTVYLQMNSLKPEDTAVDYCAKLSRYYGFWYTPDFDYWGQGTQVTVSS	high polyreactivity
QVQLVESGGGLVQAGGSLRLSCAASGSSVYSYAMGWYRQAPGKERELVAAISWRGGSTYYADSVKGRFTISRDNAKNTVYLQMNSLKPEDTAVYYCAAYYYTGPTTVESDYWGQGTQVTVSS	high polyreactivity
QVQLVESGGGLVQAGGSLRLSCAASGSTAENVMGWYRQAPGKERELVAAISSRGGSTYYADSVKGRFTISRDNAKNTVYLQMNSLKPEDTAVYYCAAEYVSHFSGDRYDYWGQGTQVTVSS	low polyreactivity
QVQLVESGGGLVQAGGSLRLSCAASGSTARYAMGWNRQAPGKERELVAAITGRTGRTNYADSVKGRFTISRDNAKITVYVQMNSLKPEDTAVYYCAKRAWRAVRWTYGYWGQGSQVTVSS	high polyreactivity
QVQLVESGGGLVQAGGSLRLSCAASGSTCASYAMGWYRQAPGKERELVAAITDSGGSTYYADSVKGRFTISRDNAKNTVYLQMNSLKPEDTAVYYCAAYGAYFSYHDYEYWGHGTQVTVSS	low polyreactivity
QVQLVESGGGLVQAGGSLRLSCAASGSTCDYYAMGWYRQAPGKEREIVAAITTGGDTTNYADSVKGRFTISRDNAKNTVYLQMNSLKPEVTAVYYCARDTGYDLIVLPDDSWGQGTQVTVSS	low polyreactivity
QVQLVESGGGLVQAGGSLRLSCAASGSTCILNAMGWYRQAPGKERELVATISSSDTSTYYADSVKGRFTISRDNAKNTVYLQMNCLKPEDTAVYYCNADYYTTSYLQGVYHYGVEYDFWGQGTQVTVSS	low polyreactivity
QVQLVESGGGLVQAGGSLRLSCAASGSTCPYYAMGWYRQAPRKEMELVASIRKRGGGTSYADSVKGRFTISRDNAKNTVYLQMNSLKPEDTALYYCAVRVYQLRYTGYDYWGQCTQVTVSS	high polyreactivity
QVQLVESGGGLVQAGGSLRLSCAASGSTCVYYPMGWYRQAPGKERELVAAIRGRDGNTYYADSVKGRFTISRDNAQNTVYLQMNSLKPEDSAVYSSAATRRNQLYGVAYRYDYWGQGTQVTVSS	high polyreactivity
QVQLVESGGGLVQAGGSLRLSCAASGSTFAANAMGWDRQAPGKERELVAAITSGGGSTYYADSVKGRFTISRDNAKNTVYLQMNSLKPEDTAVYYCAALQSHGVDYDYWGQGSQVTVSS	low polyreactivity
